Measured values taken from US10772928B2, “Modulation and detection of a neuronal alternative splicing regulatory network for treatment and diagnosis of neurological disorders” (The Governing Council of the University of Toronto, priority 2014, dated 2020).

T1: nSR100 (Mus musculus, UniProt Q8BKA3)
T1 construct: host or cells: mouse N2A cells
T1 sequence (Q8BKA3 1-608): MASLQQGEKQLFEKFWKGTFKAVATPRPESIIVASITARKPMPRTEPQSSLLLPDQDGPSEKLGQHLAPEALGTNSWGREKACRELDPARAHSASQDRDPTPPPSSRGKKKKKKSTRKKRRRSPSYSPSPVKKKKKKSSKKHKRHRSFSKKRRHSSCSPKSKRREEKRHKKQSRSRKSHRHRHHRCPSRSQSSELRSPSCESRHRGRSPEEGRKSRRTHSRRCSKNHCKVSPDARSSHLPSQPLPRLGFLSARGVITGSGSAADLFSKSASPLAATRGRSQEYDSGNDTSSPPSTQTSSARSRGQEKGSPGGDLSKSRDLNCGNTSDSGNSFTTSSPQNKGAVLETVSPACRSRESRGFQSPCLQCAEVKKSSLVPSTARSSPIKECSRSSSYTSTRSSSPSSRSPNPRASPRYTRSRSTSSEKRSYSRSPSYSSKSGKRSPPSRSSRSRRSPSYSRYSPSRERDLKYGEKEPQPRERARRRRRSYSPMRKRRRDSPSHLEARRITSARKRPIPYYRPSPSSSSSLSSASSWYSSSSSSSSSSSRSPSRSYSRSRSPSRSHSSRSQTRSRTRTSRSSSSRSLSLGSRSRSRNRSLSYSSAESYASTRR


Molecular target: T1, nSR100
Test: AP-MS nSR100 interaction partners from mouse N2A cells (Table 5)
Assay type: binding
Settings: for AvgP (average of the SAINT scores) / MaxP (maximal SAINT score): bait Srrm4; for FoldChange between the prey Avg spectra of the bait and control purifications: bait Srrm4, 0.1 added to prevent division by 0; for AvgSpec (average number of spectra per replicate): bait Srrm4, 2 replicates; for Spectra (number of spectra for the prey in the purification of the bait): AP-MS; for SpecSum: bait Srrm4, sum of spectra over 2 replicates
[1] = bait Srrm4, biological replicate 1 (first number of the cell)
[2] = bait Srrm4, biological replicate 2 (second number of the cell)

Excerpt: By applying affinity purification coupled to mass-spectrometry (AP-MS), several interaction nSR100 partner proteins were detected that provide insight into mechanisms of post-translational regulation of nSR100 levels.

Molecule	AvgP (average of the SAINT scores)	MaxP (maximal SAINT score)	FoldChange between the prey Avg spectra of the bait and control purifications	AvgSpec (average number of spectra per replicate)	Spectra (number of spectra for the prey in the purification of the bait) [1]	Spectra (number of spectra for the prey in the purification of the bait) [2]	SpecSum
Gsk3b (protein, UniProt Q9WV60 1-420, looked up) Glycogen synthase kinase-3 …: MSGRPRTTSFAESCKPVQQPSAFGSMKVSRDKDGSKVTTVVATPGQGPDRPQEVSYTDTKVIGNGSFGVVYQAKLCDSGELVAIKKVLQDKRFKNRELQIMRKLDHCNIVRLRYFFYSSGEKKDEVYLNLVLDYVPETVYRVARHYSRAKQTLPVIYVKLYMYQLFRSLAYIHSFGICHRDIKPQNLLLDPDTAVLKLCDFGSAKQLVRGEPNVSYICSRYYRAPELIFGATDYTSSIDVWSAGCVLAELLLGQPIFPGDSGVDQLVEIIKVLGTPTREQIREMNPNYTEFKFPQIKAHPWTKVFRPRTPPEAIALCSRLLEYTPTARLTPLEACAHSFFDELRDPNVKLPNGRDTPALFNFTTQELSSNPPLATILIPPHARIQAAASPPANATAASDTNAGDRGQTNNAASASASNST	1	1	65	6.5	6	7	13
P00761 (protein, UniProt P00761 1-231, looked up, full-length) FPTDDDDKIVGGYTCAANSIPYQVSLNSGSHFCGGSLINSQWVVSAAHCYKSRIQVRLGEHNIDVLEGNEQFINAAKIITHPNFNGNTLDNDIMLIKLSSPATLNSRVATVSLPRSCAAAGTECLISGWGNTKSSGSSYPSLLQCLKAPVLSDSSCKSSYPGQITGNMICVGFLEGGKDSCQGDSGGPVVCNGQLQGIVSWGYGCAQKNKPGVYTKVCNYVNWIQQTIAAN	1	1	150	15	15|15	15|15	30
U2af2 (protein, UniProt P26369 2-475, looked up) Splicing factor U2AF 65 kDa …: SDFDEFERQLNENKQERDKENRHRKRSHSRSRSRDRKRRSRSRDRRNRDQRSASRDRRRRSKPLTRGAKEEHGGLIRSPRHEKKKKVRKYWDVPPPGFEHITPMQYKAMQAAGQIPATALLPTMTPDGLAVTPTPVPVVGSQMTRQARRLYVGNIPFGITEEAMMDFFNAQMRLGGLTQAPGNPVLAVQINQDKNFAFLEFRSVDETTQAMAFDGIIFQGQSLKIRRPHDYQPLPGMSENPSVYVPGVVSTVVPDSAHKLFIGGLPNYLNDDQVKELLTSFGPLKAFNLVKDSATGLSKGYAFCEYVDINVTDQAIAGLNGMQLGDKKLLVQRASVGAKNATLVSLPSTINQTPVTLQVPGLMSSQVQMGGHPTEVLCLMNMVLPEELLDDEEYEEIVEDVRDECSKYGLVKSIEIPRPVDGVEVPGCGKIFVEFTSVFDCQKAMQGLTGRKFANRVVVTKYCDPDSYHRRDFW	1	1	4.83	111	108	114	222
Cdc37 (protein, UniProt Q61081 1-379, looked up) Hsp90 co-chaperone Cdc37: MVDYSVWDHIEVSDDEDETHPNIDTASLFRWRHQARVERMEQFQKEKEELDRGCRECKRKVAECQRKLKELEVAESDGQVELERLRAEAQQLRKEERSWEQKLEDMRKKEKNMPWNVDTLSKDGFSKSMVNTKPEKAEEDSEEAREQKHKTFVEKYEKQIKHFGMLHRWDDSQKYLSDNVHLVCEETANYLVIWCIDLEVEEKCALMEQVAHQTMVMQFILELAKSLKVDPRACFRQFFTKIKTADHQYMEGFKYELEAFKERVRGRAKLRIEKAMKEYEEEERKKRLGPGGLDPVEVYESLPEELQKCFDVKDVQMLQDAISKMDPTDAKYHMQRCIDSGLWVPNSKSGEAKEGEEAGPGDPLLEAVPKAGNEKDVSA	1	1	4.61	53	58	48	106
Api5 (protein, UniProt O35841 1-504, looked up) Apoptosis inhibitor 5: MPTVEELYRNYGILADATEQVGQHKDAYQVILDGVKGGTKEKRLAAQFIPKFFKHFPELADSAINAQLDLCEDEDVSIRRQAIKELPQFATGENLPRVADILTQLLQTDDSAEFNLVNNALLSIFKMDAKGTLGGLFSQILQGEDIVRERAIKFLSTKLKTLPDEVLTKEVEELILTESKKVLEDVTGEEFVLFMKILSGLKSLQTVSGRQQLVELVAEQADLEQAFSPSDPDCVDRLLQCTRQAVPLFSKNVHSTRFVTYFCEQVLPNLSTLTTPVEGLDIQLEVLKLLAEMSSFCGDMEKLETNLRKLFDKLLEYMPLPPEEAENGENAGNEEPKLQFSYVECLLYSFHQLGRKLPDFLTAKLNAEKLKDFKIRLQYFARGLQVYIRQLRLALQGKTGEALKTEENKIKVVALKITNNINVLIKDLFHIPPSYKSTVTLSWKPVQKVEIGQKRTSEDTSSGSPPKKSPGGPKRDARQIYNPPSGKYSSNLSNFNYERSLQGK	1	1	18	9	8	10	18
Snrpa (protein, UniProt Q62189 1-287, looked up) U1 small nuclear …: MATIATMPVPETRANHTIYINNLNEKIKKDELKKSLYAIFSQFGQILDILVSRIMKMRGQAFVIFKEVTSATNALRSMQGFPFYDKPMRIQYAKTDSDIIAKMKGTYVERDRKREKRKPKSQETPAAKKAVQGGAAAPVVGAVQPVPGMPPMPQAPRIMHHMPGQPPYMPPPGMIPPPGLAPGQIPPGAMPPQQLMPGQMPPAQPLSENPPNHILFLTNLPEETNELMLSMLFNQFPGFKEVRLVPGRHDIAFVEFDNEVQAGAARDALQGFKITQNNAMKISFAKK	1	1	7.09	39	38	40	78
Acin1 (protein, UniProt Q9JIX8 1-1338, looked up) Apoptotic chromatin …: MWGRKRPNSSGETRGILSGNRGVDYGSGRGQSGPFEGRWRKLPKMPEAVGTDPSTSRKMAELEEVTLDGKPLQALRVTDLKAALEQRGLAKSGQKSALVKRLKGALMLENLQKHSTPHAAFQPNSQIGEEMSQNSFIKQYLEKQQELLRQRLEREAREAAELEEASAESEDEMTHPEGVASLLPPDFQSSLNRPELELSTHSPRKSSSFSEEKGESDDEKPRKGERRSSRVRQAKSKLPEYSQTAEEEEDQETPSRNLRVRADRNLKIEEEEEEEEEEEDDDDEEEEEVDEAQKSREAEAPTLKQFEDEEGEERTRAKPEKVVDEKPLNIRSQEKGELEKGGRVTRSQEEARRSHLARQQQEKETQIVSLPQEENEVKSSQSLEEKSQSPSPPPLPEDLEKAPVVLQPEQIVSEEETPPPLLTKEASSPPTHIQLQEEMEPVEGPAPPVLIQLSPPNTDAGAREPLASPHPAQLLRSLSPLSGTTDTKAESPAGRVSDESVLPLAQKSSLPECSTQKGVESEREKSAPLPLTVEEFAPAKGITEEPMKKQSLEQKEGRRASHALFPEHSGKQSADSSSSRSSSPSSSSSPSRSPSPDSVASRPQSSPGSKQRDGAQARVHANPHERPKMGSRSTSESRSRSRSRSRSASSSSRKSLSPGVSRDSNTSYTETKDPSCGQEAAAPSGPQLQVLEPKEKAPTFSASVRGRHLSHPEPEQQHVIQRLQPEQGSPKKCEAEEAEPPAATQPQTSETQISHLLESERTHHTVEEKEEVTMDTSENRPENEVPEPPLPVADQVSNDERPEGGAEEEEKKESSMPKSFKRKISVVSATKGVQAGNSDTEGGQPGRKRRWGASTAATQKKPSISITTESLKSLIPDIKPLAGQEAVVDLHADDSRISEDETERNGDDGTHDKGLKICRTVTQVVPAEGQENGQREEEEEKEPEAELPAPPQVSVEVALPPPVEHEVKKVTLGDTLTRRSISQQKSGVSITIDDPVRTAQVPSPPRGKISNIVHISNLVRPFTLGQLKELLGRTGTLVEEAFWIDKIKSHCFVTYSTVEEAVATRTALHGVKWPQSNPKFLCADYAEQDELDYHRGLLVDRPSETKAEEQGAPRPLHPPPPPPVQPPPHPRAEQREQERAVREQWAEREREMERRERTRSEREWDRDKVREGPRSRSRSRDRRRKERAKSKEKKSEKKEKAQEEPPAKLLDDLFRKTKAAPCIYWLPLTESQIVQKEAEQAERAKEREKRRKEREEEEQKEREKEAERERNRQLEREKRREHSRERERDRERERDRGDRERERERDRDRGRERDRRDTKRHSRSRSRSTPVRDRGGRR	1	1	250	25	23	27	50
